Reference: patent publication US20240083991A1 (Pfizer, published 2024)
Values joined by “and” are separate entries in the source; they are usually repeats but may differ in a detail not shown here. Equal values may be shown once. Read-outs that look alike come from different tables or passages of the source.

What was measured:
[1] = target: T1, cyno BMP9 (mature) (cynomolgus monkey, UniProt G7PEU8 320-429); experiment: cell-based or functional assay
T1 sequence: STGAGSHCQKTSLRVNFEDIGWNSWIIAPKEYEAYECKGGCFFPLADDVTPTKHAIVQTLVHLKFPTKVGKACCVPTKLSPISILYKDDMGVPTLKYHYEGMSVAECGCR

[2] = target: T2, rat BMP9 (mature) (rat, UniProt M0RB87 320-430, Chemically biotinylated for capture on the SPR chip; sites not stated. Natural mature BMP9 is a disulfide-linked homodimer; one monomer chain is given.); experiment: cell-based or functional assay
T2 sequence: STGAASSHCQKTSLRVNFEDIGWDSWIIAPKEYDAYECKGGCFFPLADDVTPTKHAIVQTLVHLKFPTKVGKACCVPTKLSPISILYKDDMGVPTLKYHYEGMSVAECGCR

[3] = target: T3, human mature BMP9 (human, UniProt Q9UK05 320-429); experiment: cell-based or functional assay
T3 sequence: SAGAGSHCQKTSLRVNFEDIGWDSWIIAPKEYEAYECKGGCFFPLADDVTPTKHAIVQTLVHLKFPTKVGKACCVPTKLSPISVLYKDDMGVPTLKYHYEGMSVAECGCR

[4] = target: T3, human mature BMP9; experiment: cell-based or functional assay; remark: listed apart in the source
[5] = target: T3, human mature BMP9; experiment: cell-based or functional assay; remark: listed apart in the source
[6] = target: T3, human mature BMP9; experiment: cell-based or functional assay; remark: listed apart in the source
[7] = target: T3, human mature BMP9; experiment: cell-based or functional assay; remark: listed apart in the source
[8] = target: T3, human mature BMP9; experiment: cell-based or functional assay; remark: listed apart in the source
[9] = target: T1, cyno BMP9 (mature); experiment: cell-based or functional assay; remark: listed apart in the source
[10] = target: T1, cyno BMP9 (mature); experiment: cell-based or functional assay; remark: listed apart in the source
[11] = target: T2, rat BMP9 (mature); experiment: cell-based or functional assay; remark: listed apart in the source
[12] = target: T2, rat BMP9 (mature); experiment: cell-based or functional assay; remark: listed apart in the source
[13] = target: T3, human mature BMP9; experiment: cell-based or functional assay; remark: listed apart in the source
[14] = target: T1, cyno BMP9 (mature); experiment: cell-based or functional assay; remark: listed apart in the source
[15] = target: T2, rat BMP9 (mature); experiment: cell-based or functional assay; remark: listed apart in the source
[16] = target: T3, human mature BMP9; experiment: method not stated (legend of the crystal structure figure)
[17] = target: T3, human mature BMP9; experiment: competition ELISA: antibody mixed with 0.6 nM BMP9-biotin, binding to coated BMPRII (1 µg/ml) detected
Experimental: For competition ELISAs, each receptor protein was coated on a 384-well ELISA plate at its optimal coating concentration, 20 μl/well in PBS-CMF at 4° C. overnight. The next day, plates were washed 3 times with PBS+0.05% TWEEN™ 20 and blocked with PBS+1% BSA for 1 hr at RT with shaking. Anti-BMP9 Abs were serially diluted 3-fold in PBS+1% BSA, starting from 100 nM, then mixed with the same volume of the optimal concentration of biotinylated BMP9. The final concentration of biotinylated BMP9 corresponded to the EC₉₀ for each receptor, as determined in a preliminary experiment described above.
Serially diluted Abs were incubated with biotinylated BMP9 for at least 15 min at RT. Plates were washed as before, followed by addition of serially diluted Abs and the biotinylated BMP9 mixture. After incubating for 1 hr at RT, plates were washed 3 times with PBS+0.05% TWEEN™ 20. Secondary antibody was added (HRP-Streptavidin from BioLegend, cat #405210, 1:2000), followed by 1 hr incubation at RT. Plates were washed as before, signal was developed using TMB substrate, and the reaction stopped with 0.18 M H₂SO₄. Absorbance was read at 450 nm on an ENVISION® plate reader (Perkin Elmer).

IC50, inhibition of BMP9-induced phospho-SMAD2 nuclear translocation in endothelial cells [1]: 0.027 to 0.042 nM
IC50, inhibition of BMP9-induced phospho-SMAD2 nuclear translocation in endothelial cells [2]: 0.465 nM and 1 nM
IC50 (read off the curve): BMP9-induced pSMAD1/5/9 nuclear translocation, TIME cells [3]: ~0.03 nM
IC50 (read off the curve): BMP9-induced pSMAD2 nuclear translocation, TIME cells [4]: ~0.04 nM
IC50 (read off the curve): BMP9-induced pSMAD1/5/9 nuclear translocation, TIME cells [5]: ~0.03 nM
IC50 (read off the curve): BMP9-induced pSMAD2 nuclear translocation, TIME cells [6]: ~0.04 nM
IC50 (read off the curve): BMP9-induced pSMAD1/5/9 nuclear translocation, HPAEC [7]: ~0.04 nM
IC50 (read off the curve): BMP9-induced pSMAD2 nuclear translocation, HPAEC [8]: ~0.03 nM
IC50 (read off the curve): BMP9-induced pSMAD1/5/9 nuclear translocation, cynomolgus monkey PAEC [9]: ~0.02 nM
IC50 (read off the curve): BMP9-induced pSMAD2 nuclear translocation, cynomolgus monkey PAEC [10]: 0.016 to 0.03 nM
IC50 (read off the curve): BMP9-induced pSMAD1/5/9 nuclear translocation, rat LSEC [11]: ~0.3 nM
IC50 (read off the curve): BMP9-induced pSMAD2 nuclear translocation, rat LSEC [12]: ~0.5 nM
IC50 (read off the curve): Human BMP9-induced pSMAD1/5/9 nuclear translocation, TIME cells [13]: ~0.1 nM
IC50 (read off the curve): Cyno BMP9-induced pSMAD1/5/9 nuclear translocation, TIME cells [14]: ~0.1 nM
IC50 (read off the curve): Rat BMP9-induced pSMAD1/5/9 nuclear translocation, TIME cells [15]: ~0.1 nM
fold increase in binding affinity relative to Ab93 [16]: ~20 fold
IC50 (read off the curve) [17]: ~0.3 nM
B1: Ab1076 (antibody, human IgG1, lambda, V domains shown)
VH: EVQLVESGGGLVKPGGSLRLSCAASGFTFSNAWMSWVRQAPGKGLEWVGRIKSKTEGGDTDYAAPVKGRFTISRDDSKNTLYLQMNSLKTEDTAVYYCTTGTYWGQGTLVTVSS
VL: QSVLTQPPSASGTPGQRVTISCSVTNTDIDIFNVHWYQQLPGTAPKLLFFHDYRPSGVSDRFSGSKSGTSASLAIVGLQSEDEGYYYCAGLDEAMRGPVFGGGTKLTVLG
notes: The heavy chain can be prepared with or without the C-terminal lysine
